One experiment addresses Med15 ABD1 (yeast) (UniProt P19659). Description: ITC; Gal4 AD in the syringe (1.11 mM), Med15 domain in the cell (ABD1 0.102 mM; ABD2 0.11 mM); 22 °C; 20 mM KH2PO4 pH 7.5, 200 mM KCl; single binding site model.
A further experiment addresses Med15 ABD2 (yeast) (UniProt P19659). The description is as above.
Experiment [1] concerns the target Gal4 AD (residues 828–881) labeled with Oregon Green 488 (yeast) (UniProt P04386). Description: fluorescence polarisation; Oregon Green 488-labelled Gal4 AD; 15 concentrations of Med15 spanning 0–250 μM; 22 °C; 20 mM KH2PO4 pH 7.5, 200 mM KCl; one-site total binding model.
Experiment [2] deals with Gal4 AD (Gal4 residues 828–881) (yeast) (UniProt P04386). Description: NMR titration; (1H,15N)- and (1H,13C)-HSQC titrations; unlabeled Gal4 AD or ABD added to ~200 μM 13C,15N-labelled AD or ABD; 25 °C; 20 mM sodium phosphate, 150 mM NaCl, 0.1 mM EDTA, 5 mM DTT, pH 6.5.
Experiment [3] has as its target Gcn4 cAD (Saccharomyces cerevisiae) (UniProt P03069). In words: FP. The following applies: cited from earlier work.
For experiment [4], the target named is Gcn4 nAD (Saccharomyces cerevisiae) (UniProt P03069). In words: FP. To be noted: cited from earlier work.
Experiment [5] has as its target Gcn4 tAD (Saccharomyces cerevisiae) (UniProt P03069). In words: FP. To be noted: cited from earlier work.

Where only a bound is given, the exact number is not on record here.

This is an account of results in publication PMC8044209.

As to “Gal4 AD (Gal4 residues 828–881) (from UniProt P04386 828-881) (domain or fragment)”, the dissociation constant (Kd) with Med15 ABD1 (yeast) was determined as 9.2 µM; with Med15 ABD2 (yeast) it was 35 µM.

The substance “Med15 158–651 Δ239–272, Δ373–483 (ABD123) (from UniProt P19659 158-651) (domain or fragment)” came in with a dissociation constant (Kd) in experiment [1] of 2.04 µM.

“Med15 484–651 (ABD3) (from UniProt P19659 484-651) (domain or fragment)” displayed a Kd in experiment [1] of 16.2 µM.

In the case of “Med15 ABD1 (from UniProt P19659 158-238) (domain or fragment)”, in experiment [1], the Kd was 9.24 µM. In experiment [2], this substance gave an exchange rate greater than 250 s⁻¹ and a lifetime of the bound state of less than 4 ms.

Regarding Med15 ABD1 (from UniProt P19659), the Kd was 2.5 µM in experiment [3], 3.3 µM in experiment [4] and 2.66 µM in experiment [5].

With “Med15 ABD2 (from UniProt P19659 277-368) (domain or fragment)”, in experiment [1], the dissociation constant Kd turned out to be 98 µM.

With Med15 ABD2 (from UniProt P19659), the results for the Kd in experiment [3], in experiment [4] and in experiment [5] were 147 µM, 21.8 µM and 19.5 µM, respectively.

On to Med15 ABD3 (from UniProt P19659), for which the values for the Kd in experiment [3], in experiment [4] and in experiment [5] were 13.9 µM, 2.6 µM and 4.4 µM, respectively.

Turning to Med15 ABD123 (from UniProt P19659), the Kd in experiment [4] was 0.36 µM.
